Test results taken from the nanobody polyreactivity screen of Harvey et al. (2022).

assay: yeast display, Sf9 membrane polyspecificity reagent, FACS + sequencing; frameworks hold sequencing errors
Summary of the method: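 Nanobodies from a synthetic yeast display library (Saccharomyces cerevisiae BJ5465), induced 36–48 hours with galactose, were stained 1 hour at 4 °C with 10% biotinylated, detergent-solubilized Sf9 membrane reagent, enriched on streptavidin microbeads, then FACS-sorted. Anti-HA (expression) and streptavidin (reagent binding) fluorescence set low and high (top ~1%) gates. Polyreactivity labels come from the gate of origin. Genes were colony-PCR amplified, MiSeq 2 × 250 sequenced and filtered by CDR length.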

Row | Sequence | polyreactivity (PSR sort gate)
1 | QVQLVESGGGLVQAGGSLRLSCAASGITILRYAMGWYRQAPGKERELVARITRSGGSTYYADSVKGRFTISRDNAKNTVYLQMNSLKPEDTAVYYCNDVRSAGDGDYWGQGTQVTVSS | high polyreactivity
2 | QVQLVESGGGLVQAGGSLRLSCAASGITINFYAMGWYRQAPGKERELVAAITQSGGSTYYADSVKGRFTISRDNAKNTVYLQMNRLKPEDTAVYYCAAARTGHMYYWGQGTQVTVSS | high polyreactivity
3 | QVQLVESGGGLVQAGGSLRLSCAASGITINYYAMGWYRQAPGKERELVATIRSGGGTYYADSVKGRFTISRDNAKNTVYLQMNSLKTEDTAVYYCASYTYPYYRYDYWGQGTQVTVSS | high polyreactivity
4 | QVQLVESGGGLVQAGGSLRLSCAASGITIRLYAKGWYRQAPGKERELVAGISSGGSTYYADSVKGRFTISRDNAKNTFYLQMNSLKPEDTAVYYCAAVSYGRRRPQHFEYWGQGTQVTVSS | high polyreactivity
5 | QVQLVESGGGLVQAGGSLRLSCAASGITIRRYAMGWYRQAPGKERELVAAISTSGGGTYYADSVKGRFTISRDNAKNTVYLQMNSLKPEDTAVYYCAARYLGYLLSGYPPYDYWGQGSQVTVSS | high polyreactivity
6 | QVQLVESGGGLVQAGGSLRLSCAASGITIYDNDMGWYRQAPWKERELVAGITRTTVGTYYADSVKGRFTISRDNAKNTVYLQMNSLKPEDTAVYYCAATSLAGYYQFDYWGQGTQVTVSS | low polyreactivity
7 | QVQLVESGGGLVQAGGSLRLSCAASGITLAGYVMGWYRQAPGKERELVADISSSGDSTYYADSVKGRFTISRDNAKNTVYLQMNSLKPEDTAVYYCADEEIIPLIYKGYPFDYWGQGTQVTVSS | low polyreactivity
8 | QVQLVESGGGLVQAGGSLRLSCAASGITLATNAMGLYRQAPGKERELVAAINSGGITKYADSVKGRFTISRDNEKNTVYLQMNSLKPEDTAVYYCAADLEPRTNAPGLPTPDGYYWGQGTQVTVSS | low polyreactivity
9 | QVQLVESGGGLVQAGGSLRLSCAASGITLDDYAMGWDRQARGKERELVAAISWSGGSTYYADSVKGRFTISRDNAKNTDYLQMNSLKPADTAVYYCAADPPFRYDYWGQGTQVTVSS | low polyreactivity
10 | QVQLVESGGGLVQAGGSLRLSCAASGITLDVNAMGWYRQAPGKERELVADITWSDDTTYYADSVKGRFTISRDNAKNTVYLQMNSLKPEDTAVYYCAADVSVSFHPRGYDYWGQGTQVTVSS | low polyreactivity
11 | QVQLVESGGGLVQAGGSLRLSCAASGITLHYYAMGWYRQAPGKEREFVAAISWTGGSTYYADSVKGRFTISRDTAKNTVYLQMNSLKPEDTAVYYCAAEGGAFRTYYYWGQGTQVTVSS | high polyreactivity
12 | QVQLVESGGGLVQAGGSLRLSCAASGITLIRYAMGWYRQAPGKERELVAAINSSGGNTYYADSVKGRFTISRDNAKNTVYLQMNSLKPEDTAVYYCAAKYILDIIGSLDYWGQGTQVTVSS | low polyreactivity
13 | QVQLVESGGGLVQAGGSLRLSCAASGITLKPNAMGWYRQAPGKERELVAAIDSGGSTNYADSVKGRFTISRDNAKNTVYLQMNSLKPEDTAVYYCAAPYQDRDLQVSYSTYEGGYWGQGTQVTVSS | low polyreactivity
14 | QVQLVESGGGLVQAGGSLRLSCAASGITLLGNAMGWYRQAPGTERELVAAISRRGGSTYYADSVKGRFTISRDNAKNTVYLQMNSLKPEDTAVYYCAADRYTVVYYRIFDYWGQGTQVTVSS | high polyreactivity
15 | QVQLVESGGGLVQAGGSLRLSCAASGITLLYNAMGWSRQAPGKERELVAGITGRGGSTYYADSVKGRFTISRDNAKNTVYLQMNSLKPEDTAVYYCAATTDYRYVGRIVIRDEHWGQGTQVTVSS | low polyreactivity
16 | QVQLVESGGGLVQAGGSLRLSCAASGITLLYNAMGWYRQAPGKERELVAGITGRGGSTYYADSVKGRFTISRDNAKNTVYLQMNSLKPEDNAVYYCAATTDYRYVGRIVIRDDHWGHGTQVTVSS | low polyreactivity
17 | QVQLVESGGGLVQAGGSLRLSCAASGITLPVYGKGWYRQAPGKERELVAVIDIVGITNYADSVKGRFTISRDNAKNTVYLQMNSLKPEDTAVYYCAKRYVYIADGGEYYYWGQGTQVTVSS | low polyreactivity
18 | QVQLVESGGGLVQAGGSLRLSCAASGITLQNNAMGWYRQAPGKERELVAAITGSGGSTYYADSVKGRFTISRDNAKNTVYLQMNSLKPEDTAVYYCATDGIFHLGVYTPYDYWGQGTQVTVSS | low polyreactivity
19 | QVQLVESGGGLVQAGGSLRLSCAASGITLQYYAMGWYRQAPGKERQLVAGITSGGGTYYADSVKGRFTISRDNAKNTVYLQMNSLKPEDTAVYYCAARPWRSRYYGGLGRRFDYWGQGTQETVSS | high polyreactivity
20 | QVQLVESGGGLVQAGGSLRLSCAASGITLSSNAMGWYRQAPGKERELVAAITWRTDRTYYADSVKGRFTISRDNAKNTVYLQMNSLKPEDTAVDYCAARTTVSSARYDYWGQGTQVTVSS | high polyreactivity
21 | QVQLVESGGGLVQAGGSLRLSCAASGITLTPYAMGWYRQAPGKERELVAAISWSGGSTYYADSVKGRFTISRDNAKNTVYLQMNSLKPEDTAVYYCAAGPGQYTVYAGTIGEYDYWGQGTQVTVSS | high polyreactivity
22 | QVQLVESGGGLVQAGGSLRLSCAASGITLVRYAMGWNRKAPGKEREFVASITSGASTNYADSVKGRFTISRYNAKNTVYLQMNSLKPDDTAVYYCAAGPPSGGWWGGWYEYWGQGTQVTVSS | high polyreactivity

Row | Sequence | polyreactivity (PSR sort gate)
23 | QVQLVESGGGLVQAGGSLRLSCAASGITLWQYAMGWYRQAPGKERELVAGITDTGDSTYYADSVKGRFTISRDNAKNTVYLQMNSLKPEDTAVYYCAVPRSALLRAPYELYSWGQGTQVTVSS | low polyreactivity
24 | QVQLVESGGGLVQAGGSLRLSCAASGITLYGYVMGWYRQAPGKERELVAAISASGGRTHYADSVKGRFTISRDNAKNTVYLQMNSLKPEDTAVYYCARAGSRSPGGYDYWGQGTQVTVSS | high polyreactivity
25 | QVQLVESGGGLVQAGGSLRLSCAASGITLYNYAMGWYRQAPGKERELVAAISLSGGRTYYADSVKGRFTISRDNAKNTVYLQMNSLKPEDTAVYYCAADWLNSDPYNYWGQGTQVTVSS | low polyreactivity
26 | QVQLVESGGGLVQAGGSLRLSCAASGITLYNYAMGWYRQAPGKERELVAAISLSGGRTYYADSVKGRFTISRDNAKNTVYLQMNSLKPEDTAVYYCAAETDFVWSAPQLAYKVYYWGQGTQVTVSS | low polyreactivity
27 | QVQLVESGGGLVQAGGSLRLSCAASGITLYRYVMGWYRQAPGKERELVAAISGRGTSTYYADSVKGRFPISRDNAKNTVYLQMNSLKPEDTAVYYCNAEYTKTGALVIPYTYYYAEDYWGQGTQVTVSS | low polyreactivity
28 | QVQLVESGGGLVQAGGSLRLSCAASGITNTHYAMGWYRQAPGKERELVAAITSSGRTYYADSVKGRFTISRDNAKNTVYLQMNSLKPEDTAVYYCAAEHSWYYGLLGYWGQGTQVTVSS | high polyreactivity
29 | QVQLVESGGGLVQAGGSLRLSCAASGITSARYAMGWYRQAPGKERELVAAITLSGVRTYYADSVKGRFTISRDQAKNTVYLQMNSLKPEDTAVYYCNTVYYSKWGQGTQVTVSS | low polyreactivity
30 | QVQLVESGGGLVQAGGSLRLSCAASGITSDQNAMGWYRQAPGKERELVAAITRGGTTYYADSVKGRFTISRDNAKNTVYLQMNSLKPEDTAVYYCNARYYFRKQVRPFHIRYDYWGQGTQVTVSS | low polyreactivity
31 | QVQLVESGGGLVQAGGSLRLSCAASGITSEYNTMGWYRQAPGKERELVAGISYRGGSTYYADSVKGRFTISRDNAKNTVYLQMNSLKPEDTAVYYCAKSFKRWRYGNPDYYWGQGTQVTVSS | high polyreactivity
32 | QVQLVESGGGLVQAGGSLRLSCAASGITSGTYAMGWYRQAPGKERELVAGISRSVTRTYYADSVKGRFTISRDNAKNTVYLQMNSLKPEDTAVYYCNTYVVRRPGYGYWGQGTQVTVSS | high polyreactivity
33 | QVQLVESGGGLVQAGGSLRLSCAASGITSKQYAMVWYRQAPGKERELVAAISGSGTRTYYADSVKGRFTISRDNAKNTVNLQMNSLKPEDTAVYYCAAYGYSRCHDDWGQVTQVTVSS | high polyreactivity
34 | QVQLVESGGGLVQAGGSLRLSCAASGITSQTYAMGWYRQAPGKERELVAGISASGGRTFYADSVKGRFTFSRDHAKNTVYLQMNSLKPEDTAVYYCNKLSSDSYNYWGQGTQVTVSS | high polyreactivity
35 | QVQLVESGGGLVQAGGSLRLSCAASGITSSYAMGWYRQAPGKERALVAAISRGGSTYYADSVKGRFTISRDNAKNTVSLQMNSLKPEDTAVYYCNKRRYPYGWGQGTQVTVSS | high polyreactivity
36 | QVQLVESGGGLVQAGGSLRLSCAASGITSWYYAMGWYRQAPGKERELVAAITSDGRTNYADSVMGRFTISRDNAKNTVYLQMNSLKPEDTAVYYCAVARYPYRYDYWGQGTQVTVSS | high polyreactivity
37 | QVQLVESGGGLVQAGGSLRLSCAASGITSWYYAMGWYRQAPGKERELVAAITSDGSTYYADSVKGRFTISRDNAKNTVYLQMNSLKPEDTAVYYCAAERDYWIPDSYLVGMDYWGQGTQVTVSS | low polyreactivity
38 | QVQLVESGGGLVQAGGSLRLSCAASGITVDSNAMGWYRQAPGKDRELVAAISSTGSTDYADSVKGRFTISRDNAKNTVYLQMNSLKPEDTAVYYCAADSRYYYYGYKISGDYDSWGQGTQVTVSS | low polyreactivity
39 | QVQLVESGGGLVQAGGSLRLSCAASGITYGRYTMGWYRQAPGKERELVAAITNGDITDYADSVKGRFTISRDNAKNTVYLQMNSLKPEDTAVYYCAALLLYQNDHWGQGTQVTVSS | high polyreactivity
40 | QVQLVESGGGLVQAGGSLRLSCAASGITYGTYAMGWYRQAPGKERELVARITGSGGRTYYADSVKGRFTISRDNAKNTVYLQMISLKPEDTAVYYCAAETWRRYLFGYWGQGTQVTVSS | high polyreactivity
41 | QVQLVESGGGLVQAGGSLRLSCAASGITYGYYAMGWYRQAPGKERELVATITDGGGTKYADSVKGRFTISRDNAKNTVYLQMNSLKPEDTAVYYCAAGLRHVYATEYDYWGQGTQVTVSS | low polyreactivity
42 | QVQLVESGGGLVQAGGSLRLSCAASGIYYNAMGWYRQAPGKERELVAAITTGDRTNYADSVKGRFTISRDNAKNTVYLQMNCLKPEDTAVYYCNAVVERLSSTARDFAYDYWGQGTQVTVSS | low polyreactivity
43 | QVQLVESGGGLVQAGGSLRLSCAASGKIFSYNAMGWYRQAPGKERELVAAISRSGGSTYYADSVKGRFTISRDNAKNTVYLQMNSLKPEDTAVYYCAADWRGRKYDYWGQGTQVTVSS | high polyreactivity
